Source: paper PMC3659287

Target: wild-type pneumolysin (PLY) (Streptococcus pneumoniae) (UniProt Q04IN8)
Assay: ELISA

Chain of UniProt Q04IN8 (Q04IN8 whole entry): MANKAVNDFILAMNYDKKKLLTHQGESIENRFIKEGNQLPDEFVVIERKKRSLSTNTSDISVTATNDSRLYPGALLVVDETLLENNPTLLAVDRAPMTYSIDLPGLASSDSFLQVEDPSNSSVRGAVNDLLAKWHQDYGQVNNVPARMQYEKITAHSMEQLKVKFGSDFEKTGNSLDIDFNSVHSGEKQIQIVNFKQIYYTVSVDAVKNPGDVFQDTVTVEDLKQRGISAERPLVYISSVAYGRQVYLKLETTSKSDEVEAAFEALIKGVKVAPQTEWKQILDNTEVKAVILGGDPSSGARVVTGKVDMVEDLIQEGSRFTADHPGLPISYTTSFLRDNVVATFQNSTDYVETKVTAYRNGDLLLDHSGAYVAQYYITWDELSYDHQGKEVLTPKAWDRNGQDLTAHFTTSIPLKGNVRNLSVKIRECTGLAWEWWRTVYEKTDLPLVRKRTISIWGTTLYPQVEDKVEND

Q: How did the Kd turn out when “G-actin (non-muscle actin isolated from human platelets) (from UniProt P60709 1-375) (natural protein)” was run?
A: Its Kd is 170 to 190 nM.
